Results published in patent US20140147868A1 (published 2014).
Positions of bridges follow the written chain, without caps; N, C: chain ends. No end group written: not given here.

B1: monoclonal antibody TC2 (antibody, mouse IgG1, V domains shown)
VH: QVQLKQSGPGLLQPSQSLSITCTVSGFSLTYYGVHWVRQSPVKGLEWLGVIWSGGDTDYDTTFISRLSISKDNSKGQVFFKMTSLQTDDTAIYYCARGRTYGIHFDYWGQGTTLTVSS
VL: DIVMSQSPSSLAVSVGEKVTMSCKSSQSLFNSRTRKNYLAWYQQKPGQSPKVLIYWASTRESGVPDRFTGSGSGTDFTLTISSVQAEDLAIYYCKQFYDLWTFGGGTKLEIKR
notes: also called mAb TC2; ECACC 02110742

How the values were obtained:
monoclonal antibody 3C4 [1] = biological target: T1, monoclonal antibody 3C4; assay: SPR, 3C4 immobilised, phagemid injected
T1 construct: also called mAb 3C4; 3C4 (3CY)
Description: (§1) The carboxylated surface of the a dextran coated CM5 chip (Biacore, Sweden) was activated according to protocol supplied by the manufacturer. In short 0.05M N-hydroxysuccinimide (NHS)/0.2 M N-ethyl-N′-[3-(dimethylamino)propyl]carbodiimide hydrochloride (EDC), was injected over the carboxylated chip at 10 μL/min for 7 min, then 50 μg/mL rabbit anti-mouse IgG polyclonal antibody in 10 mM acetate buffer, pH 5.0 is injected at 10 μL/min for 7 min, and finally the chip is blocked by injection of 1 M ethanolamine at 10 μL/min for 7 min. Immobilization of mouse monoclonal antibodies on the dextran coated chip was performed in the same way.
(§2) Antibodies were covalently immobilized on a dextran coated CM5 chip as described in Example 2. Phages were diluted 10-fold in HBS-EP and injected at 10 μL/min for 3 min. The amounts of phagemid bound was recorded in real time and expressed in response units (RU). To evaluate blocking by holoTC, 1 μM of holoTC was injected at 10 μL/min for 5 min prior to the injection of phagemids at 10 μL/min for 3 min. Inhibition was computed as the number of RU of phagemid bound to 3C4 with pretreatment with holoTC divided with the number of RU bound without pretreatment, times 100.
Target sequence in this assay (VH, as listed by the source, chain 1 of 2): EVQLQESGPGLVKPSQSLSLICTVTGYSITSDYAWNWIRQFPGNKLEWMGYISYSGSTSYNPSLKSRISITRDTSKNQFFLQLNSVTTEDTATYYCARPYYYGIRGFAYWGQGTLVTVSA
Target sequence in this assay (VL, as listed by the source, chain 2 of 2): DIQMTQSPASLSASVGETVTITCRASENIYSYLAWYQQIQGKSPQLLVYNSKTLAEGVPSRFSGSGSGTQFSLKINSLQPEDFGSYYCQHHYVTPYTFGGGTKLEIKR

monoclonal antibody 3C4 [2] = biological target: T1, monoclonal antibody 3C4; assay: phage ELISA, coated mAb 3C4, 10^8 phagemid per well
Description: (§3) Microtitre plates were coated with 100 μL, 1 μg/mL mAb 3C4 or unrelated control antibody in PBS over night at 4 C. Remaining binding sites were blocked with 20 mg/mL bovine serum albumin (BSA) in PBS for 1 h. Some wells were only coated with BSA. Monoclonal packaged phagemids were added at a concentration of 10¹⁰ to 10⁸ cfu per well in PBS and incubated for 1 h. Preparations of packaged phagemids were centrifuged to remove aggregates. Wells were washed 6 times with PBS containing 0.1% Tween-20 and 3 times with PBS. For detection of bound phages 100 μL of horse-radish peroxidase (HRP) conjugated anti-[…] antibody (e.g. Pharmacia) diluted 1/5000 in PBS was added to each well and incubated for 1 h at ambient temperature. ELISA plates were washed 5 times with PBS containing 0.1% Tween-20 and 3 times with PBS. The chromogenic substrate o-Phenyldiamine in citric acid, pH 4.0 supplemented with H₂O₂ was added and the color generating reaction was stopped after 2-5 min by addition of 2 M H₂SO₄.
Target sequence in this assay (VH, as listed by the source, chain 1 of 2): as the sequence (VH, as listed by the source, chain 1 of 2) above
Target sequence in this assay (VL, as listed by the source, chain 2 of 2): as the sequence (VL, as listed by the source, chain 2 of 2) above

monoclonal antibody 3C4 [3] = biological target: T1, monoclonal antibody 3C4; assay: phage ELISA, coated mAb 3C4, 10^9 phagemid per well
Description: as §3
Target sequence in this assay (VH, as listed by the source, chain 1 of 2): as the sequence (VH, as listed by the source, chain 1 of 2) above
Target sequence in this assay (VL, as listed by the source, chain 2 of 2): as the sequence (VL, as listed by the source, chain 2 of 2) above

monoclonal antibody 3C4 [4] = biological target: T1, monoclonal antibody 3C4; assay: phage ELISA, coated mAb 3C4, 10^10 phagemid per well
Description: as §3

monoclonal antibody 3C4 [5] = biological target: T1, monoclonal antibody 3C4; assay: SPR, phagemid bound to 3C4 after 1 uM holoTC (competitor)
Description: as §1, §2
Target sequence in this assay (VH, as listed by the source, chain 1 of 2): as the sequence (VH, as listed by the source, chain 1 of 2) above
Target sequence in this assay (VL, as listed by the source, chain 2 of 2): as the sequence (VL, as listed by the source, chain 2 of 2) above

monoclonal antibody 3C4 [6] = biological target: T1, monoclonal antibody 3C4; assay: SPR, inhibition of phagemid binding to 3C4 by 1 uM holoTC (competitor)
Description: as §1, §2
Target sequence in this assay (VH, as listed by the source, chain 1 of 2): as the sequence (VH, as listed by the source, chain 1 of 2) above
Target sequence in this assay (VL, as listed by the source, chain 2 of 2): as the sequence (VL, as listed by the source, chain 2 of 2) above

[7] = biological target: T2, human holotranscobalamin (holoTC) (human, UniProt P20062 19-427, cobalamin bound (holo form, non-covalent)); assay: SPR (BIAcore), scFv immobilised
T2 construct: Recombinant human holoTC in the SPR work; also called holo-TCII
T2 chain: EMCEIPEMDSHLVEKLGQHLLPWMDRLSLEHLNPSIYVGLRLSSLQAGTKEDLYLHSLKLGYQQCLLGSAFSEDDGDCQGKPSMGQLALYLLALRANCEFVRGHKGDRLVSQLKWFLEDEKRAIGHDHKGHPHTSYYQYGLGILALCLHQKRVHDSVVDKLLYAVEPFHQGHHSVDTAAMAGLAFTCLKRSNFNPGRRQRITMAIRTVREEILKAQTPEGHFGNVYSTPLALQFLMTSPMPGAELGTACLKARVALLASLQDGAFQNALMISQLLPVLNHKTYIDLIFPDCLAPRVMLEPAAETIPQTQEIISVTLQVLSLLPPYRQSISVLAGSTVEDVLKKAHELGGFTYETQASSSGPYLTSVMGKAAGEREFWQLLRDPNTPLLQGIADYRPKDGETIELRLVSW

[8] = biological target: T2, human holotranscobalamin (holoTC); assay: SPR (BIAcore), scFv immobilised; head read as 10^-4
[9] = biological target: T3, human apotranscobalamin (apoTC) (human, UniProt P20062 19-427); assay: as above
T3 construct: Same chain as holoTC without cobalamin; also called apo-TCII
T3 chain: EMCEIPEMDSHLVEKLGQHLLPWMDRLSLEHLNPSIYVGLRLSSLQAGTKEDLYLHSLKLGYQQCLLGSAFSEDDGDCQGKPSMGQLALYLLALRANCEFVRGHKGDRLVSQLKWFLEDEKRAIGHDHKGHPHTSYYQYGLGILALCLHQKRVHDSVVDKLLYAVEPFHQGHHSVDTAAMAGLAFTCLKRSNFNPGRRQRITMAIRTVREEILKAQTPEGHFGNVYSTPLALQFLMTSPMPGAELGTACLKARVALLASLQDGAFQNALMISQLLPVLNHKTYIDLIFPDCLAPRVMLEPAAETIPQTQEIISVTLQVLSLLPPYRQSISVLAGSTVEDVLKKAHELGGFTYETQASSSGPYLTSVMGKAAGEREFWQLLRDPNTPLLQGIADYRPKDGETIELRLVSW

monoclonal antibody 3-9 = biological target: T4, monoclonal antibody 3-9; assay: SPR, mAb 3-9 immobilised, phagemid injected
T4 construct: Antibody from State University of New York; also called mAb 3-9
Description: as §1, §2

monoclonal antibody 3C4 [10] = biological target: T1, monoclonal antibody 3C4; assay: SPR, mAb 3C4 immobilised, phagemid injected
Description: as §1, §2
Target sequence in this assay (VH, as listed by the source): as the sequence (VH, as listed by the source, chain 1 of 2) above

monoclonal antibody TC2 = biological target: B1; assay: SPR, mAb immobilised, phagemid injected (Table 5; 1 RU)
Description: as §1, §2

[11] = biological target: T2, human holotranscobalamin (holoTC); assay: SPR; holoTC against apoTC
[12] = biological target: T2, human holotranscobalamin (holoTC); assay: SPR (Biacore); Kd values for holoTC
[13] = biological target: T2, human holotranscobalamin (holoTC); assay: SPR (BIAcore), antibody immobilised
[14] = biological target: T3, human apotranscobalamin (apoTC); assay: SPR (BIAcore), antibody immobilised
[15] = biological target: T2, human holotranscobalamin (holoTC); assay: SPR (Biacore), mAb on chip, TC injected
[16] = biological target: T2, human holotranscobalamin (holoTC); assay: SPR (BIAcore), antibody immobilised; head read as 10^-4
[17] = biological target: T3, human apotranscobalamin (apoTC); assay: as above
[18] = biological target: T2, human holotranscobalamin (holoTC); assay: SPR, scFv injected over immobilised holoTC
Description: Selected scFv antibodies were evaluated by surface plasmon resonance essentially as described in Example 2. Purified antibody preparations were injected over a chip with immobilized holoTC. The holoTC chip was prepared by binding holoTC to a chip prepared as described in 2.1 or by binding biotinylated holoTC on a streptavidin coated SA chip (Biacore, Sweden).

Binder	Phage bound (RU) (monoclonal antibody 3C4 [1])	ELISA (absorbance units) (monoclonal antibody 3C4 [2])	ELISA (absorbance units) (monoclonal antibody 3C4 [3])	ELISA (absorbance units) (monoclonal antibody 3C4 [4])	Block by holoTC (RU) (monoclonal antibody 3C4 [5])	Inhibition (%) (monoclonal antibody 3C4 [6])	phagemid bound (RU) (monoclonal antibody 3-9)	phagemid bound (RU) (monoclonal antibody 3C4 [10])	other results
CSGLYPWDMFRCS (disulfide 1-12 (inferred); also: displayed on phage (phagemid)) [phagemid CS1-9p (phage-displayed disulfide cyclized 13 mer peptide)]	35	0.259	0.539	0.769	1	87			
single chain antibody fragment TC2_ScFv (scFv, A C-terminal tag may be present; also called scFv TC2) scFv: QVQLKQSGPGLLQPSQSLSITCTVSGFSLTYYGVHWVRQSPVKGLEWLGVIWSGGDTDYDTTFISRLSISKDNSKGQVFFKMTSLQTDDTAIYYCARGRTYGIHFDYWGQGTTLTVSSGGGGSGGGGSGGGGSDIVMSQSPSSLAVSVGEKVTMSCKSSQSLFNSRTRKNYLAWYQQKPGQSPKVLIYWASTRESGVPDRFTGSGSGTDFTLTISSVQAEDLAIYYCKQFYDLWTFGGGTKLEIKR									Ka [7]: 3e+06 M⁻¹; kon [7]: 4000 M⁻¹ s⁻¹; koff [8]: 0.0015 s⁻¹; koff [9]: 0.0015 s⁻¹
CSFRYLWDQDRCS (disulfide 1-12 (inferred); also: displayed on phage (phagemid)) [phagemid CS1-6p (phage-displayed disulfide cyclized 13 mer peptide)]	24	0.406	0.664	1.06	3	88	0	45	binding result (monoclonal antibody TC2): no binding
B1									holo/apo Specificity (-fold) [11]: 1 -fold; Kd [12]: 1 to 5 nM; Ka [13]: 2.5e+08 M⁻¹; kon [13]: 100000 M⁻¹ s⁻¹; Ka [14]: 7e+07 M⁻¹; kon [14]: 100000 M⁻¹ s⁻¹; Kd [15]: 1 to 5 nM; koff [16]: 0.0004 s⁻¹; koff [17]: 0.0015 s⁻¹
mutated scFv 3C4 clone 3.9G2 (scFv, A190T stands in the next printed row (r19)) scFv: EVQLQESGPGLVKPSLSLSLICTVTGYSIASDYTWNWIRQFPGNKLEWMGYISYSGSTSYNPSLKSRISITRDTSKNQFFLQLNSVTTEDTATYYCARPYYYGIRGFAYWGQGTLVTVSAGGGGSGGGGSGGGGSDIQMTQSPASLSASVGETVTITCRASENIYSYLAWYQQIQGKSPQLLVYNSKTLTEGVPSRFSGSGSGTQFSLKINSLQPEDFGSYYCQHHYVTPYTFGGGTKLEIKR									Kd [18]: 150 nM; koff [18]: 0.00059 s⁻¹; kon [18]: 3800 M⁻¹ s⁻¹
CSFRYQWDMFRCS (disulfide 1-12 (inferred); also: displayed on phage (phagemid)) [phagemid CS1-11p (phage-displayed disulfide cyclized 13 mer peptide)]	32	0.348	0.559	0.645	0	100	0	32	
CSGLYPWDYFMCS (disulfide 1-12 (inferred); also: displayed on phage (phagemid)) [phagemid CS1-29p (phage-displayed disulfide cyclized 13 mer peptide)]	20	0.156	0.189	0.335	3	85			
CSFFYSLCYCWCS (disulfide (positions not given here); also: four Cys, disulfide pairing not given here, also called CSI-31p) [phagemid CS1-31p (phage-displayed disulfide cyclized 13 mer peptide)]	42	0.152	0.165	0.298	5	88	0	42	
CSLFYLWDQDRCS (disulfide 1-12 (inferred); also: displayed on phage (phagemid), coat fusion not given here) [phagemid CS1-2p (phage-displayed disulfide cyclized 13 mer peptide)]	4	0.245	0.224	0.287					
